Reference: article PMC5670179, “Folding of a bacterial integral outer membrane protein is initiated in the periplasm” (Nature Communications, 2017)

B1: HA-UpaGΔ2 (domain or fragment)
chain: AGVNATDAVNVSQLKSSEAGGVRYDTKADGSIDYSNITLGGGNSGTTRISNVSAGVNNNDAVNYAQLKQSVQETKQYTDQRMVEMDNKLSKTESKLSGGIASAMAMTGLPQAYTPGASMASIGGGTYNGESAVALGVSMVSANGRWVYKLQGSTNSQGEYSAALGAGIQW
notes: UpaG, trimeric autotransporter adhesin of uropathogenic E. coli O6:H1 strain CFT073; the C-terminal 170 residues (passenger-domain fragment 1609-1689 and beta-domain segment 1689-1778) of the 1778 residue full-length protein; Made with the native UpaG signal peptide (residues 1-53) before the HA tag; the signal peptide is meant to be cleaved on export; Two glycines were inserted between signal …

Columns and labels:
[1] = target: His10-UpaGΔ2(Y1735am) (E. coli O6:H1 strain CFT073); experiment: SDS-PAGE of unheated (25 °C) against heated (99 °C) samples after Ni-NTA purification; cells radiolabelled, UV irradiated and PK treated; membranes solubilised in 2% DDM, Ni-NTA in 50 mM NaH2PO4 pH 8, 500 mM NaCl, 0.05% DDM; eluate kept at 25 or 99 °C in SDS sample buffer for 5 min
[2] = target: the molecule itself; experiment: SDS- and heat-resistant oligomers on SDS-PAGE after pulse-chase labelling and immunoprecipitation; cells grown in M9 minimal medium at 37 °C, pTrc99a derivatives; TCA precipitation, immunoprecipitation with anti-HA or anti-UpaG antiserum, samples heated to 99 °C for 5 min, 8-16% Tris-glycine gels

| Molecule | stoichiometry N [1] | stoichiometry N [2] |
| --- | --- | --- |
| His10-UpaGΔ2(Y1735am) (from UniProt A0A0H2VCA1 1609-1778) (domain or fragment) | 3 | – |
| B1 | – | 3 |
